T1: TtArsC (Thermus thermophilus, UniProt Q72HI5)
T1 construct: gene TT_C1502; recombinant, pET30/TtarsC in E. coli BL21-CodonPlus(DE3)-RIL; thermo-precipitation, anion exchange (Resource Q), gel filtration (Superdex S75); no tag mentioned
T1 sequence (Q72HI5 1-150): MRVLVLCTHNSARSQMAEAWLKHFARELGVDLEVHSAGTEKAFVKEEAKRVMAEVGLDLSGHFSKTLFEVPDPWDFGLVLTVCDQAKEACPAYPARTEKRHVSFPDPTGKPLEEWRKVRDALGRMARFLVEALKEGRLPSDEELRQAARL

B1: TtArsC (Thermus thermophilus HB27) (protein)
chain: T1 sequence (Q72HI5 1-150)
notes: recombinant, pET30/TtarsC in E. coli BL21-CodonPlus(DE3)-RIL; thermo-precipitation, anion exchange (Resource Q), gel filtration (Superdex S75); no tag mentioned

Experiments:
[1] = molecular target: T1, TtArsC; assay: biochemical
[2] = substrate: O=[N+]([O-])c1ccc(OP(=O)(O)O)cc1; assay: purified protein; assay type: biochemical, Thermus thermophilus; details: no inhibitor, 4 µM enzyme, 20 mM Tris-HCl pH 7, 60 °C

Molecule | Ki [1] | Km [2] | Vmax [2] | kcat [2]
O=[As]O [As(III)] | 394 ± 40.3 µM |  |  | 
B1 |  | 9.57 ± 1.95 mM | 0.0193 µmol/min/mg | 0.005 s⁻¹

Reference: PMC8949286, “A New Strategy for As(V) Biosensing Based on the Inhibition of the Phosphatase Activity of the Arsenate Reductase from Thermus thermophilus” (International Journal of Molecular Sciences, 2022)
